Reference: US20160200799A1
Numbering of substitutions follows the chain as printed.

B1: Group 58 representative clone F083-307, Fab-PP-type antibody (Fab, V domains shown)
VH: QVQLQQSGADVKKPGSSVKVSCKASGGTFGNYAISWVRQAPGQGLEWMGGITPIFGPANYAQRFQGRVTISADISTRTAYMELSSLRSEDTAIYYCARHPTYYFGSAMEYWGQGTLVTVSS
VL: SYELTQPPSVSVAPGQTATITCGGDRIGTGPVHWYQQRPGRAPVLIIYGSTHRPSGIPERFSGSKSVNTATLSISGVGVGDEADYYCQVWDTSTAQPIVFGGGTKLTVLS
B2: Group 62 representative clone F083-349, Fab-PP-type antibody (Fab, V domains shown)
VH: QVQLVQSGAEVRKPGSSVKVSCKASGVIFIKFAISWVRQAPGQGLEWMGGIIPMFGTTNYAQKFQGRVTITADGSTNTVYMELSSLTSEDTAVYYCAKEEGYYYGSGPLDSWGQGTLVTVSS
VL: DIVMTQSPDFLSVSLGERVTINCKSSQTVLNRSNNKNYLAWYQKKPGQPPRLLLYWSSTRESGVPDRFSGSGSETDFALTITNLQAEDLAVYFCQQFYDMPVTFGGGTKLEIK
B3: Group 65 representative clone F083-366, Fab-PP-type antibody (Fab, V domains shown)
VH: QVQLVQSGSEVKKPGSSVKVSCKASRGIFSSYAISWVRQAPGQGLEWMGAVIPMFGTLKYAENFQGRITISADKSMSAAYMELSSLRSEDTAVYYCARNYYGSGTYFNDAFDIWGQGTMVTVSS
VL: QSVLTQPPSGSGAPGQRVTISCTGGNSNIGAGYDVNGYQQLPGKAPKLLIYGNNNRPSGVPDRFSGSKSGTSASLAITGLQVEDEAHYYCQSYDNGLSGSVFGGGTQLTVLG
B4: Group 44 representative clone F081-008, Fab-PP-type antibody (Fab, V domains shown)
VH: QVQLVQSGAEVKKPGSSVKVSCKASGGTFSSFSTYTISWVRQAPGQGLEWMGRSIPLLGITNYAQKFQGRVTITADISTSTAYMELSSLRSEDTAVYYCARYQSSDYYNSEYFQHWGQGTLVTVSS
VL: EIVLTQSPGTLSLSLGERVTLSCRASQNVGTNYLAWYQQKPGQAPRLLIYGASSRATGVPDRFSGSGSGTDFTLTISRLAPEDFAVYYCQQYSSSPLTFGGGTKLEIK
B5: Group 57 representative clone F083-103, Fab-PP-type antibody (Fab, V domains shown)
VH: QVQLQQSGADVKKAGSSVKVSCKASGRTFGNYAISWVRQAPGQGLEWMGGITPIFGAANYAQKFQGRVTISADLSTRMVYMDLSSLRSDDTAFYYCAGHPTYHYGSAMDYWGQGTLVTVSS
VL: QSVLTQPPSVSAAPGQKVTITCSGSSSNIGNNYVSWYQQLPGTAPKLLISEGSNRPSGIPDRFSGSKSGTSATLGITGLQTGDEATYYCATWDDSLSVVLFGGGTRLTVLS
B6: Group 80 representative clone F083-373, Fab-PP-type antibody (Fab, V domains shown)
VH: B5 VH with Q5V, A14P, K19R, R77T, H103Y, A107P
VL: EIVLTQSPSSLSASVGDRVTITCRASQSIATYLNWYQQKPGKAPNLLIYAASNLQSGVPSRFSGSGSGTDFTLTISSLQPEDFATYVCLQSYSATLTFGGGTKVEIK
B7: Group 59 representative clone F083-351, Fab-PP-type antibody (Fab, V domains shown)
VH: B5 VH with Q5V, T101M
VL: QSVLTQPPSASGTPGQRVSISCFGSRSNVGSSSVNWYQQLPGRAPKLLIQRNDQRPSGVPDRFSGSKSGTSASLAISGLQSDDESTYYCAAWDDSVKSVVFGGGTQLTVLG
B8: Group 51 representative clone F083-302, Fab-PP-type antibody (Fab, V domains shown)
VH: QVQLVQSGAEVKKPGSSVKVSCEASGATFSSNAFSWVRQAPGQGPEWMGGIITMFRKAEYAQKFQGRVTITAGELGSTAYMEVRSLTFEDTAVYYCARHSGYHLIGYFDSWGQGTLVTVSS
VL: QSVLTQPPSVSAAPGQKVTISCSGTTSNIGNNYVSWYQQLPGAAPKLLIYDNNKRPSGIPDRFSGSKSDTSATLGITGLQTGDEADYYCGTWVSSLSVWVFGGGTKLTVLG
B9: Group 43 representative clone F081-007, Fab-PP-type antibody (Fab, V domains shown)
VH: QVQLQQSGAEVKKPGSSVKVSCKASGGIFRKNAISWVRQAPGQGLEWMGGISAIFGTANYAQKFQGRVTITADESSNTVYMDLSRLRSEDTAIYYCASHPTYHFDKSGYRFDSWGQGTLVTVSS
VL: B8 VL with T25S, T26S, A43T, D69G, V93D, V98A, W99G
B10: Group 63 representative clone F083-336, Fab-PP-type antibody (Fab, V domains shown)
VH: QVQLQQSGAEVKQPGSSVKVSCKASGGIFRSNAISWVRQAPGQGLEWMGGIVALFGTANYAQKFQGRVTITADESTSTVYMELSSLRSEDTARYYCARNSGYHISGFYLDYWGQGTLVTVSS
VL: EIVLTQSPSSLSASVGDRVTITCRASQGISNYLAWYQQRPGKVPKLLIYTASTLLSGVPSRFSGGGSGTDYTLTISSLQPEDVATYYCQEYKSVPLTFGPGTKVEIK
B11: Group 38 representative clone F082-338, Fab-PP-type antibody (Fab, V domains shown)
VH: QVQLQESGAEVKKPGSSVKVSCKASGGPFRSHAISWVRQAAGQGLEWMGGITAVFGTANYAQKFQGRVTITADESTNIVSMELSSLRSEDTAIYYCARSLGYHTQYNGMDVWGQGTTVTVSS
VL: DVVMTQSPSSVSASVGDRVTITCRASQGISSWLAWYQQKPGKAPKLLIYAASSLQSGVPSRFSGSGSGTDFTLTISSLQPEDFATYYCQQANSFPITFGQGTRLEIK
B12: Group 64 representative clone F083-301, Fab-PP-type antibody (Fab, V domains shown)
VH: QVQLVQSGAEVKKPGSSVKVSCKASGGIFNSNAISWVRQAPGQGLEWMGGIIGIFGTANYAQKFQGRVTIAADQSTNTVFMELSSLTSEDTAVYFCARSRGYSFGYGTDYFDYWGQGTLVTVSS
VL: DIVMTQSPSTLSASVGDRVTITCRASQSISSWLAWYQQAPGKAPKLLIYEASKLQSGVPSRFSATGSGTEFTLTIASLQPEDFAIYYCQHYEAYPFSFGPGTKLDVK

Key:
Test in all cases: cell-based or functional assay
[1] = target: Influenza virus A/Brisbane/59/2007 (H1N1) (Influenza A virus A/Brisbane/59/2007 (H1N1))
[2] = target: Influenza virus A/California/7/2009pdm (H1N1pdm) (Influenza A virus A/California/7/2009pdm (H1N1pdm))
[3] = target: Influenza virus A/Indonesia/5/2005/PR8-IBCDC-RG2 (H5N1) (Influenza A virus A/Indonesia/5/2005/PR8-IBCDC-RG2 (H5N1))
[4] = target: Influenza virus A/Panama/2007/1999 (H3N2) (Influenza A virus A/Panama/2007/1999 (H3N2))
[5] = target: Influenza virus A/Suita/1/2009pdm (H1N1 2009 pandemic) (Influenza A virus A/Suita/1/2009pdm (H1N1pdm))

Binder	HI activity [1]	Neutralizing activity (%) at 100 µg/ml [1]	Neutralizing activity (%) at 250 µg/ml [1]	HI activity [2]	Neutralizing activity (%) at 100 µg/ml [3]	Neutralizing activity (%) at 250 µg/ml [3]	Neutralizing activity (%) at 100 µg/ml [4]	Neutralizing activity (%) at 250 µg/ml [4]	Neutralizing activity (%) at 100 µg/ml [5]	Neutralizing activity (%) at 250 µg/ml [5]
B1	> 160 µg/mL	100%	100%	> 160 µg/mL	28.8%	31.8%	-6.8%	11.6%	76.6%	54.8%
B2	> 160 µg/mL	92.1%	92.1%	> 160 µg/mL	40.2%	83.9%	13.7%	-8.9%	97.1%	91.3%
B3	> 160 µg/mL	96.1%	98%	> 160 µg/mL	-0.8%	-3.9%	-13%	-6.8%	13.5%	19.2%
B4	> 160 µg/mL	100%	100%	> 160 µg/mL	48.8%	56.5%	3.4%	15.8%	95.3%	97.7%
B5	> 160 µg/mL	84.2%	92.1%	> 160 µg/mL	30%	61.2%	11%	13.7%	60.2%	83.8%
B6	> 160 µg/mL	70.4%	74.3%	> 160 µg/mL	-3.3%	15.4%	-6.9%	-21.2%	1.9%	7.7%
B7	> 160 µg/mL	100%	100%	> 160 µg/mL	-2.7%	5.4%	-6.8%	-6.6%	88.5%	85.6%
B8	> 160 µg/mL	98%	98%	> 160 µg/mL	72.9%	85.9%	3.4%	-11%	100%	100%
B9	> 160 µg/mL	100%	100%	> 160 µg/mL	97.6%	98.8%	11.6%	13.7%	100%	100%
B10	> 160 µg/mL	100%	100%	> 160 µg/mL	98.8%	100%	-11%	-8.9%	100%	100%
B11	> 160 µg/mL	100%	100%	> 160 µg/mL	67.1%	85.3%	-2.7%	-0.7%	100%	97.7%
B12	> 160 µg/mL	86.2%	92.1%	> 160 µg/mL	40.6%	47.1%	-2.7%	7.5%	83.6%	81.3%
